Data reported in patent US20190367589A1 (CYTOMX THERAPEUTICS, published 2019).
Numbering of substitutions follows the chain as printed. Each block holds one binder with its values, some of them ahead of it.

T1: JS5340
T1 construct: also called masking moiety JS5340
T1 peptide displayed on cells: CNLWLHGGDCRGWQG

T2: JS5347
T2 construct: also called masking moiety JS5347
T2 peptide displayed on cells: CNIWGPSVDCGALLG

T3: JS5358
T3 construct: also called masking moiety JS5358
T3 peptide displayed on cells: CNIWVNGGDCRSFEG

B1: 4D11 Fab (Fab, V domains shown)
VH: EVQLLESGGGLVQPGGSLRLSCAASGFTFSSYAMSWVRQAPGKGLEWVSSIDPEGRQTYYADSVKGRFTISRDNSKNTLYLQMNSLRAEDTAVYYCAKDIGGRSAFDYWGQGTLVTVSS
VL: DIQMTQSPSSLSASVGDRVTITCRASQSISSYLNWYQQKPGKAPKLLIYAASSLQSGVPSRFSGSGSGTDFTLTISSLQPEDFATYYCQQTVVAPPLFGQGTKVEIKR
notes: C-terminally His-tagged Fab from the periplasm of E. coli; also called anti-Jagged Fab 4D11; Fab 4D11
B2: 4E7 Fab (Fab, V domains shown)
VH: EVQLLESGGGLVQPGGSLRLSCAASGFTFSSYAMSWVRQAPGKGLEWVSSIEEMGWQTKYADSVKGRFTISRDNSKNTLYLQMNSLRAEDTAVYYCAKSAAAFDYWGQGTLVTVSS
VL: B1 VL with T91S, V92L, P96L, L97T
notes: C-terminally His-tagged Fab from the periplasm of E. coli
B3: 4B2 Fab (Fab, V domains shown)
VH: B1 VH with D52E, P53Q, E54M, R56W
VL: B1 VL with V92L, V93D, L97Q
notes: as for B2
B4: 6B7 Fab (Fab, V domains shown)
VH: B2 VH with E52D, K59Y
VL: B1 VL with T91A, V92L, P96L, L97T
notes: as for B2
B5: 6F8 Fab (Fab, V domains shown)
VH: B2 VH with E52D, K59Y
VL: B1 VL with T91A, V92L, P96L, L97T
notes: C-terminally His-tagged Fab from the periplasm of E. coli; As printed its variable domains equal those of 6B7
B6: 4E11 Fab (Fab, V domains shown)
VH: B1 VH with D52E, E54M, R56Q, Q57L, Y59E
VL: B1 VL with T91A, V92L, V93D, P96L, L97M
notes: as for B2
B7: masking moiety JS5877 (peptide)
peptide: GCNIWLVGGDCRGWIGDTNG
B8: masking moiety JS5885 (peptide)
peptide: GCNIWLVGGDCRGWIEDSNG
B9: masking moiety JS5887 (peptide)
peptide: GCNIWANGGDCRGWIDNIDG
B10: masking moiety JS5342 (peptide)
peptide: CNIWLVGGDCRGWQG
B11: masking moiety JS5872 (peptide)
peptide: GCNIWLNGGDCRGWVDPLQG
B12: anti-Jagged 13 IgG (antibody, V domains shown)
VH: B2 VH with E53T, M54Q, W56P, Q57T, K59L, S99T, A100S, A101S
VL: DIQMTQSPSSLSASVGDRVTITCRASQSISSYLNWYQQKPGKAPKLLIYASSLQSGVPSRFSGSGSGTDFTLTIGSLQPEDFATYYCQQNVATPLTFGQGTKVEIKR
notes: Fully human IgG made from the variable domains of ScFv Jagged 13; also called anti-Jag 13
B13: anti-Jagged 13 Fab (Fab, V domains shown)
VH: B2 VH with E53T, M54Q, W56P, Q57T, K59L, S99T, A100S, A101S
VL: B12 VL
notes: Fab expressed in E. coli; also called Jag13
B14: anti-Jagged 32 Fab (Fab, V domains shown)
VH: B2 VH with E53Q, K59Y
VL: B12 VL with S51A, G75S, N90T, A92V, T93A
notes: Fab expressed in E. coli; also called Jag32
B15: anti-Jagged 32 IgG (antibody, V domains shown)
VH: B2 VH with E53Q, K59Y
VL: B12 VL with S51A, G75S, N90T, A92V, T93A
notes: Fully human IgG made from the variable domains of ScFv Jagged 32; also called anti-Jag 32; antibody 32/32

What was measured:
masking moiety JS5342 = molecular target: B10; experiment: FACS of cells displaying the peptide, biotinylated anti-Jagged Fab at 1, 10 and 100 nM, streptavidin-PE, normalised to expression with yPet-MONA
JS5340 = molecular target: T1, JS5340; experiment: as above
JS5347 = molecular target: T2, JS5347; experiment: as above
JS5358 = molecular target: T3, JS5358; experiment: as above
[1] = molecular target: T4, human Jagged 2-Fc (R&D Systems Cat #1726-JG-050) (human, UniProt Q9Y219 27-1080, limits assumed); experiment: BLI (Octet), Jagged-Fc on anti-human Fc tips, Fab in solution
T4 construct: Bought reagent; also called hJag2; h Jagged 2; not shown: Fc part
Description: (§1) Off rates for individual Fabs were measured using an Octet (ForteBio, Menlo Park, Calif.). […] Following a wash, the loaded tips were exposed to 25 μM Fab until binding had reached equilibrium. The tips were then removed to a fresh solution with no Fab, and the rate of Fab dissociation was measured.

[2] = molecular target: T5, murine Jagged 2-Fc (R&D Systems) (murine, UniProt Q9QYE5 24-1082, limits assumed); experiment: as above
T5 construct: Bought reagent, cited as ibid. although no catalogue number is printed anywhere; also called m Jagged 2; not shown: Fc part
Description: as §1

[3] = molecular target: T4, human Jagged 2-Fc (R&D Systems Cat …); experiment: drawn table 'Kd (nM)' of Fab; method not stated; the legend names the matured antibody as 4D11
masking moiety JS5877 = molecular target: B7; experiment: FACS of cells displaying the masking peptide, labelled Fab 4D11, signal normalised to expression; Fab concentration not given
masking moiety JS5885 = molecular target: B8; experiment: as above
masking moiety JS5887 = molecular target: B9; experiment: as above
masking moiety JS5872 = molecular target: B11; experiment: as above
[4] = molecular target: T6, human Jagged 1-Fc (extracellular domain of human Jagged 1 fused to the Fc portion of human IgG1); R&D Systems … (human, UniProt P78504 34-1067); experiment: BLI (Octet), Jagged-Fc on anti-human Fc tips, Fab in solution
T6 construct: extracellular domain; Bought reagent; also called hJag1; h Jagged 1; not shown: Fc portion of human IgG1
Description: as §1

4D11 Fab [5] = molecular target: B1; experiment: FACS of bacteria displaying the peptide
[6] = molecular target: T7, anti-Jagged antibody 4D11 (fully human IgG); experiment: FACS of bacteria displaying the peptide
T7 construct: Human IgG1 kappa from HEK-293 cells; Labeled with Alexa Fluor 680 in the tissue stainings, biotinylated in the peptide screens; also called anti-Jagged 4D11; 4D11 antibody

4D11 Fab [7] = molecular target: B1; experiment: FACS of bacteria displaying the peptide, labeled Fab 4D11, normalized to expression
[8] = molecular target: T4, human Jagged 2-Fc (R&D Systems Cat …); experiment: ELISA, ligand-Fc coated, anti-human IgG Fab-specific HRP
Description: (§2) Bound antibody was visualized with an anti-human IgG-HRP conjugate, Fab specific, (Sigma, St Louis, Mo.; Cat # A0293-1ML) and developed with the chromogenic substrate TMB.

[9] = molecular target: T6, human Jagged 1-Fc (extracellular domain …); experiment: as above
Description: as §2

T4 sequence (Q9Y219 27-1080 limits assumed): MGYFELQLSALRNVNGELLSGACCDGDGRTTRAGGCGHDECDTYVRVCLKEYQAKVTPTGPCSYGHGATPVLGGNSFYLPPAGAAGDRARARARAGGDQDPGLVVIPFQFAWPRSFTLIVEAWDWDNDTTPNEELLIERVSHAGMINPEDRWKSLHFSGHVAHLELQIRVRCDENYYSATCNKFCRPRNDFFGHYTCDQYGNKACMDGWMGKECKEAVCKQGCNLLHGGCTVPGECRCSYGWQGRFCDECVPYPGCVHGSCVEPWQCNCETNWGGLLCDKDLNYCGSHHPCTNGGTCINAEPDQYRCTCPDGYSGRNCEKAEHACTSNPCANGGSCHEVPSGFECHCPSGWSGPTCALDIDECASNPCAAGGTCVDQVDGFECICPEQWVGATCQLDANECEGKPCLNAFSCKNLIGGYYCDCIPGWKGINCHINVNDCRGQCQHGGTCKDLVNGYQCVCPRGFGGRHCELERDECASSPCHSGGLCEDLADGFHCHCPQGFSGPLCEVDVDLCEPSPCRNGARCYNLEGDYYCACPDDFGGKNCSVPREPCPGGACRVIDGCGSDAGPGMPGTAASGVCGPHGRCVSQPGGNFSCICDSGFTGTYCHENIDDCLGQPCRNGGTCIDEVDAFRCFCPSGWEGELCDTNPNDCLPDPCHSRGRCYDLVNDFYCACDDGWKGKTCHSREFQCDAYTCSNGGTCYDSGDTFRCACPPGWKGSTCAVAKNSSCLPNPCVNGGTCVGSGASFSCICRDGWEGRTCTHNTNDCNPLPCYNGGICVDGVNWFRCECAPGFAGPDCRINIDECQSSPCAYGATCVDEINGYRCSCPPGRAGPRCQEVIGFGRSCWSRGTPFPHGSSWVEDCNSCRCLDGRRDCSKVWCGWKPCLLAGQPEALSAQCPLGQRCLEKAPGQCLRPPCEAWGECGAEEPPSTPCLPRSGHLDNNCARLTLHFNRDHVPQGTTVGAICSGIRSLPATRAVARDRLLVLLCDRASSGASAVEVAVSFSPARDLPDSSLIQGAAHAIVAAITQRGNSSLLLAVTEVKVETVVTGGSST
T5 sequence (Q9QYE5 24-1082 limits assumed): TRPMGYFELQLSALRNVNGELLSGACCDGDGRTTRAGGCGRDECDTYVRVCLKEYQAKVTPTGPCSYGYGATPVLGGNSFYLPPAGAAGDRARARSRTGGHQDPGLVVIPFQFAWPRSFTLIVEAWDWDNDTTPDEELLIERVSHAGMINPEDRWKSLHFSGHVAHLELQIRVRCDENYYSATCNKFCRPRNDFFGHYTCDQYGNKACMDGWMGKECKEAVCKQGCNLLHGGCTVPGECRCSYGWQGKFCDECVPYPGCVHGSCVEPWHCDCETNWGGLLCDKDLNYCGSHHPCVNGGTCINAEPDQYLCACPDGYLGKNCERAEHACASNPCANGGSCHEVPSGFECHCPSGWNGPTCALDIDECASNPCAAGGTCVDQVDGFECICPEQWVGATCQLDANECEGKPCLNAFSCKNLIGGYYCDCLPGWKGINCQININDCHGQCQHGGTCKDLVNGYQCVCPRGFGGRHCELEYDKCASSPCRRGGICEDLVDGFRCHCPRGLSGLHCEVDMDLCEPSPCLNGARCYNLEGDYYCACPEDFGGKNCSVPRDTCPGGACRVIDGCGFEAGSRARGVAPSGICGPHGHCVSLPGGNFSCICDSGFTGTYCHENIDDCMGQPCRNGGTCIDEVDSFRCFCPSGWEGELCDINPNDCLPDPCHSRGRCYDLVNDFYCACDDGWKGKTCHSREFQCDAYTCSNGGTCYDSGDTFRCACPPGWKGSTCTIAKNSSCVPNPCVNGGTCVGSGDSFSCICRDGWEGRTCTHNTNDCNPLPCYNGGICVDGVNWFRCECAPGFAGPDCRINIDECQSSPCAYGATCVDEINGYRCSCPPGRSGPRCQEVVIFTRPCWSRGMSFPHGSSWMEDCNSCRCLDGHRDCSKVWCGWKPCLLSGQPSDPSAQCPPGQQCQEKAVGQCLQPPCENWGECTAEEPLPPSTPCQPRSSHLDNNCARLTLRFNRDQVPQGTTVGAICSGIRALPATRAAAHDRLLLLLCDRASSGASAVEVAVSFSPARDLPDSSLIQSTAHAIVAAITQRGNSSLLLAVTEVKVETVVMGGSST

Binder: B1
- binding result (masking moiety JS5342): binds
- binding result (JS5340): binds
- binding result (JS5347): binds
- binding result (JS5358): binds
- koff [1]: 0.00045 s⁻¹
- koff [2]: 0.00042 s⁻¹
- Kd [3]: < 1 nM
- binding result (masking moiety JS5877): binds
- binding result (masking moiety JS5885): binds
- binding result (masking moiety JS5887): binds
- binding result (masking moiety JS5872): binds

Binder: B2
- koff [4]: 0.00069 s⁻¹

Binder: B3
- koff [1]: 0.0065 s⁻¹
- koff [2]: 0.0011 s⁻¹
- koff [4]: 0.0005 s⁻¹

Binder: B4
- koff [4]: 0.00035 s⁻¹

Binder: B5
- koff [4]: 0.0012 s⁻¹

Binder: B6
- koff [1]: 0.00057 s⁻¹
- koff [2]: 2.5e-05 s⁻¹
- koff [4]: 0.0014 s⁻¹

- binding result (4D11 Fab [5]): binds
- binding result [6]: binds
Binder: CFLYSCTDVSYWNNT [masking moiety JS4906]

- binding result (4D11 Fab [5]): binds
- binding result [6]: binds
Binder: PWCMQRQDFLRCPQP [masking moiety JS4874]

Binder: B7
- binding result (4D11 Fab [7]): binds

Binder: B8
- binding result (4D11 Fab [7]): binds

- binding result (4D11 Fab [5]): binds
- binding result [6]: binds
Binder: QLGLPAYMCTFECLR [masking moiety JS4879]

Binder: B9
- binding result (4D11 Fab [7]): binds

- binding result (4D11 Fab [5]): binds
- binding result [6]: binds
Binder: YCLQLPHYMQAMCGR [masking moiety JS4899]

- binding result (4D11 Fab [5]): binds
- binding result [6]: binds
Binder: CNLWVSGGDCGGLQG [masking moiety JS4896]

Binder: B10
- binding result (4D11 Fab [7]): binds

- binding result (4D11 Fab [5]): binds
- binding result [6]: binds
Binder: SCSLWTSGSCLPHSP [masking moiety JS4897]

Binder: B11
- binding result (4D11 Fab [7]): binds

Binder: B12
- affinity (ELISA) [8]: > 30 nM
- affinity (ELISA) [9]: > 30 nM

Binder: B13
- koff [1]: 0.001 s⁻¹
- koff [2]: 0.0028 s⁻¹
- koff [4]: 0.022 s⁻¹

Binder: B14
- koff [4]: 0.027 s⁻¹

Binder: B15
- affinity (ELISA) [9]: > 30 nM
